Assay results taken from publication PMC4140278.
Each block holds one substance with its values, some of them ahead of it.

Assays:
[1] = molecular target: arrestin-3 (β-arrestin-2) (UniProt P32121); assay: BRET, arrestin-3-Rluc / FLAG-FFA4-eYFP, 5 min; settings: for percent of reference: reference: wild type
[2] = molecular target: arrestin-3 (β-arrestin-2) (UniProt P32121); assay: kinetic BRET, arrestin-3-Rluc / FFA4-eYFP; settings: reference: wild type; sites T347,S350,S357

Substance: FFA4 (GPR120) (from UniProt Q5NUL3) S360A
percent of reference ([1]; sites S360): 85%

Substance: FFA4 (GPR120) (from UniProt Q5NUL3) TSS/AAA-DD/AA
other: Emax, % of wild type ([1]; reference: DD/AA, sites T347,S350,S357): 40%

Substance: FFA4 (GPR120) (from UniProt Q5NUL3) TSSS/AAAA
other: Emax, % of wild type ([1]; reference: TSS/AAA, sites S360): weaker; reference 77 ± 2
percent of reference ([1]; sites T347,S350,S357,S360): 38%

Substance: FFA4 (GPR120) (from UniProt Q5NUL3) TSS/AAA
other: t½ of association [2]: weaker; reference 46 ± 6
percent of reference ([1]; sites T347,S350,S357): 77%

Substance: FFA4 (GPR120) (from UniProt Q5NUL3) TTSSS/AAAAA-EDD/AAA
other: Emax, % of wild type ([1]; reference: EDD/AAA, sites T347,T349,S350,S357,S360): weaker; reference 69 ± 7

Results, then the substance that gave them:

other: Emax, % of wild type ([1]; reference: DD/AA, sites T347,T349,S350,S357,S360): 21%
Substance: FFA4 (GPR120) (from UniProt Q5NUL3) TTSSS/AAAAA-DD/AA

other: milli-BRET units ([1]; reference: vehicle, sites T347,T349,S350,S357,S360): stronger; reference 63 ± 6
Substance: FFA4 (GPR120) (from UniProt Q5NUL3) TUG-891 10 µM, 5 min

other: Emax, % of wild type ([1]; reference: TSS/AAA, sites T349): same; reference 77 ± 2
percent of reference ([1]; sites T347,T349,S350,S357): 84%
Substance: FFA4 (GPR120) (from UniProt Q5NUL3) TTSS/AAAA

other: Emax, % of wild type ([1]; reference: TSS/AAA, sites T349,S360): weaker; reference 77 ± 2
other: Emax, % of wild type ([1]; reference: TSSS/AAAA, sites T349): same; reference 38 ± 2
other: Emax, % of wild type ([1]; reference: TTSS/AAAA, sites S360): weaker; reference 84 ± 7
percent of reference ([1]; sites T347,T349,S350,S357,S360): 42%
Substance: FFA4 (GPR120) (from UniProt Q5NUL3) TTSSS/AAAAA
